# Measured values published in patent EP0977036A1, “METHOD FOR ASSAYING AGALACTO-IgG AND ASSAY KITS, PO[…] LECTINS, AND DNAS ENCODING THE SAME” (SEIKAGAKU CORPORATION, priority 1996, dated 1998).
# Biological target: agalacto-IgG (human IgG treated with streptococcal beta-galactosidase and sialidase, Preparation Example 1)
# Assay: sandwich ELISA of Example 3, agalacto-IgG 2.5 µg/ml, competitor GlcNAc 50 mM (a monosaccharide)
substance,measurement,value
"Psathyrella velutina lectin (PVL), purified from Psathyrella velutina fruiting body",percent inhibition in the presence of 50 mM GlcNAc,50%
